Laboratory results published in patent US20210246166A1 (Bayer, published 2021).
Numbered stars: 1 amine (or outer) side, 2 acyl side, 3 side chain; on linkers, the order of the positions; unused ones are H or OH. Bridge positions count the residues as written; N and C are the ends. Square brackets hold non-standard residues; d marks the D form. Ends that are not written are not given here. * marks the point of attachment. (N-Benzyl)D = (2S)-2-Amino-4-(benzylamino)-4-oxobutanecarboxylic acid, O=C(C[C@H](N[*:1])C(=O)[*:2])NCc1ccccc1; X10 = (2R)‑2‑amino‑3‑(trifluoromethylsulfanyl)propanoic acid, O=C([C@H](CSC(F)(F)F)N[*:1])[*:2]; (3-Chloro-Ph)G = 3-chlorophenylglycine, O=C([C@@H](N[*:1])c1cccc(Cl)c1)[*:2]; Phe(2,5-diF) = O=C([C@H](Cc1cc(F)ccc1F)N[*:1])[*:2]; NH(CH2CH2O)4CH2CO = O=C(COCCOCCOCCOCCN[*:1])[*:2]; Pro(cis-4-CF3) = O=C(O)[C@@H]1C[C@H](C(F)(F)F)CN1; PEG9 = NCCOCCOCCOCCOCCOCCOCCOCCOCCOCCC(=O)O; Pro(4-spirocPr) = O=C(O)[C@@H]1CC2(CC2)CN1; C18 diacid = O=C(O)CCCCCCCCCCCCCCCCC(=O)*; Oic = O=C(O)[C@@H]1C[C@@H]2CCCC[C@@H]2N1; tBuAla = CC(C)(C)C[C@H](N)C(=O)O; Aad = N[C@@H](CCCC(=O)O)C(=O)O; Pen = CC(C)(S)[C@H](N)C(=O)O; PEG3 = NCCOCCOCCOCCC(=O)O; NMeA = CN[C@@H](C)C(=O)O; Orn = NCCC[C@H](N)C(=O)O; dβPro = D-beta-Proline; Sar = CNCC(=O)O

T1: Recombinant human MASP1 enzyme (fragment corresponding to amino acids 297-699, C-terminal His Tag) (human, UniProt P48740 297-699)
T1 sequence: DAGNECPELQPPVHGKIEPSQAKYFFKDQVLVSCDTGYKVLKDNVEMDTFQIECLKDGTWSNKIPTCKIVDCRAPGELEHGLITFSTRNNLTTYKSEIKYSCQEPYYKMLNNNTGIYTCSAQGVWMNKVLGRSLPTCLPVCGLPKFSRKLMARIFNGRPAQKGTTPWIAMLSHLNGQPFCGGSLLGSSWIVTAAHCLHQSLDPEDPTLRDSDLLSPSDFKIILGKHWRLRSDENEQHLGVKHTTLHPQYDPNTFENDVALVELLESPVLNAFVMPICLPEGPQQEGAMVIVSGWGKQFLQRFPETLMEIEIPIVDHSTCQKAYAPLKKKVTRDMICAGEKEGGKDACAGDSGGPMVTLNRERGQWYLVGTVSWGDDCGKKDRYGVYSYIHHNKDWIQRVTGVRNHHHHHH

T2: recombinant human MASP1 active protease (amino acids 297-699, C-terminal His Tag) (human, UniProt P48740 297-699)
T2 sequence: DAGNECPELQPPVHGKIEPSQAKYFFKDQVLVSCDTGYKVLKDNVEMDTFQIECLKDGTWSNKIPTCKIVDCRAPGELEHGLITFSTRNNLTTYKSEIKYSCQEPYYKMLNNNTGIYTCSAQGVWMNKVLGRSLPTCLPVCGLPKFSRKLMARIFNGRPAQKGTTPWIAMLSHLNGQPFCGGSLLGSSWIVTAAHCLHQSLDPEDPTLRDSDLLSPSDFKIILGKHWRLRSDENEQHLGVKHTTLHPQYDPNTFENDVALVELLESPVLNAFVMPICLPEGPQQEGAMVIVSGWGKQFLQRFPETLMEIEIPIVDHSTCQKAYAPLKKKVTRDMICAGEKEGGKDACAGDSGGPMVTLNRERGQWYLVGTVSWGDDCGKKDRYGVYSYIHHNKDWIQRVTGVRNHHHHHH

B1: AIC+SRSLP-((4-CF3)P)-IC+IPD-OH (peptide)
peptide: AICSRSLP[Pro(cis-4-CF3)]ICIPD-OH
modifications: disulfide 3-11; N-terminus assumed
SMILES: CC[C@H](C)[C@H](NC(=O)[C@H](C)N)C(=O)N[C@H]1CSSC[C@@H](C(=O)N[C@H](C(=O)N2CCC[C@H]2C(=O)N[C@@H](CC(=O)O)C(=O)O)[C@@H](C)CC)NC(=O)[C@H]([C@@H](C)CC)NC(=O)[C@@H]2C[C@H](C(F)(F)F)CN2C(=O)[C@@H]2CCCN2C(=O)[C@H](CC(C)C)NC(=O)[C@H](CO)NC(=O)[C@H](CCCNC(=N)N)NC(=O)[C@H](CO)NC1=O
B2: (ODD)-AIC+SRSLP-(Oic)-I-(Pen)+IPD-(Orn)-OH (peptide)
peptide: {C18 diacid}-AICSRSLP[Oic]I[Pen]IPD[Orn]-OH
modifications: disulfide 3-11
SMILES: CC[C@H](C)[C@H](NC(=O)[C@H](C)NC(=O)CCCCCCCCCCCCCCCCC(=O)O)C(=O)N[C@H]1CSSC(C)(C)[C@@H](C(=O)N[C@H](C(=O)N2CCC[C@H]2C(=O)N[C@@H](CC(=O)O)C(=O)N[C@@H](CCCN)C(=O)O)[C@@H](C)CC)NC(=O)[C@H]([C@@H](C)CC)NC(=O)[C@@H]2C[C@@H]3CCCC[C@@H]3N2C(=O)[C@@H]2CCCN2C(=O)[C@H](CC(C)C)NC(=O)[C@H](CO)NC(=O)[C@H](CCCNC(=N)N)NC(=O)[C@H](CO)NC1=O
B3: ((N-Me)G)-IC+SRSLP-(Oic)-I-(Pen)+IP-(AAD)-OH (peptide)
peptide: [Sar]ICSRSLP[Oic]I[Pen]IP[Aad]-OH
modifications: disulfide 3-11; N-terminus assumed
SMILES: CC[C@H](C)[C@H](NC(=O)CNC)C(=O)N[C@H]1CSSC(C)(C)[C@@H](C(=O)N[C@H](C(=O)N2CCC[C@H]2C(=O)N[C@@H](CCCC(=O)O)C(=O)O)[C@@H](C)CC)NC(=O)[C@H]([C@@H](C)CC)NC(=O)[C@@H]2C[C@@H]3CCCC[C@@H]3N2C(=O)[C@@H]2CCCN2C(=O)[C@H](CC(C)C)NC(=O)[C@H](CO)NC(=O)[C@H](CCCNC(=N)N)NC(=O)[C@H](CO)NC1=O
B4: ((N-Me)G)-IC+SRS-((tBu)A)-PPI-(Pen)+IP-(PEG4-CH2CO2H(15 atoms))-OH (peptide)
peptide: [Sar]ICSRS[tBuAla]PPI[Pen]IP[NH(CH2CH2O)4CH2CO]-OH
modifications: disulfide 3-11; N-terminus assumed
SMILES: CC[C@H](C)[C@H](NC(=O)CNC)C(=O)N[C@H]1CSSC(C)(C)[C@@H](C(=O)N[C@H](C(=O)N2CCC[C@H]2C(=O)NCCOCCOCCOCCOCC(=O)O)[C@@H](C)CC)NC(=O)[C@H]([C@@H](C)CC)NC(=O)[C@@H]2CCCN2C(=O)[C@@H]2CCCN2C(=O)[C@H](CC(C)(C)C)NC(=O)[C@H](CO)NC(=O)[C@H](CCCNC(=N)N)NC(=O)[C@H](CO)NC1=O
B5: (Orn)-IC+SRS-((2R)-2-amino-3-(trifluoromethylsulfanyl)propanoic acid)-PPI-(Pen)+IPD-OH (peptide)
peptide: [Orn]ICSRS[X10]PPI[Pen]IPD-OH
modifications: disulfide 3-11; N-terminus assumed
SMILES: CC[C@H](C)[C@H](NC(=O)[C@@H](N)CCCN)C(=O)N[C@H]1CSSC(C)(C)[C@@H](C(=O)N[C@H](C(=O)N2CCC[C@H]2C(=O)N[C@@H](CC(=O)O)C(=O)O)[C@@H](C)CC)NC(=O)[C@H]([C@@H](C)CC)NC(=O)[C@@H]2CCCN2C(=O)[C@@H]2CCCN2C(=O)[C@H](CSC(F)(F)F)NC(=O)[C@H](CO)NC(=O)[C@H](CCCNC(=N)N)NC(=O)[C@H](CO)NC1=O
B6: ((N-Me)G)-IC+SRS-((2,5-Difluoro)F)-PPI-(Pen)+IPD-OH (peptide)
peptide: [Sar]ICSRS[Phe(2,5-diF)]PPI[Pen]IPD-OH
modifications: disulfide 3-11; N-terminus assumed
SMILES: CC[C@H](C)[C@H](NC(=O)CNC)C(=O)N[C@H]1CSSC(C)(C)[C@@H](C(=O)N[C@H](C(=O)N2CCC[C@H]2C(=O)N[C@@H](CC(=O)O)C(=O)O)[C@@H](C)CC)NC(=O)[C@H]([C@@H](C)CC)NC(=O)[C@@H]2CCCN2C(=O)[C@@H]2CCCN2C(=O)[C@H](Cc2cc(F)ccc2F)NC(=O)[C@H](CO)NC(=O)[C@H](CCCNC(=N)N)NC(=O)[C@H](CO)NC1=O
B7: ((N-Me)G)-IC+SRS-((tBu)A)-PPI-(Pen)+IP-(PEG2(13 atoms))-OH (peptide)
peptide: [Sar]ICSRS[tBuAla]PPI[Pen]IP[PEG3]-OH
modifications: disulfide 3-11; N-terminus assumed
SMILES: CC[C@H](C)[C@H](NC(=O)CNC)C(=O)N[C@H]1CSSC(C)(C)[C@@H](C(=O)N[C@H](C(=O)N2CCC[C@H]2C(=O)NCCOCCOCCOCCC(=O)O)[C@@H](C)CC)NC(=O)[C@H]([C@@H](C)CC)NC(=O)[C@@H]2CCCN2C(=O)[C@@H]2CCCN2C(=O)[C@H](CC(C)(C)C)NC(=O)[C@H](CO)NC(=O)[C@H](CCCNC(=N)N)NC(=O)[C@H](CO)NC1=O
B8: ((N-Me)A)-IC+SRS-((tBu)A)-P-(Oic)-I-(Pen)+I-NH2 (peptide)
peptide: [NMeA]ICSRS[tBuAla]P[Oic]I[Pen]I-NH2
modifications: disulfide 3-11; N-terminus assumed
SMILES: CC[C@H](C)[C@H](NC(=O)[C@H]1NC(=O)[C@H]([C@@H](C)CC)NC(=O)[C@@H]2C[C@@H]3CCCC[C@@H]3N2C(=O)[C@@H]2CCCN2C(=O)[C@H](CC(C)(C)C)NC(=O)[C@H](CO)NC(=O)[C@H](CCCNC(=N)N)NC(=O)[C@H](CO)NC(=O)[C@@H](NC(=O)[C@@H](NC(=O)[C@H](C)NC)[C@@H](C)CC)CSSC1(C)C)C(N)=O
B9: AIC+SRS-((tBu)A)-P-((6S)-5-Azaspiro[2.4]heptane-6-carboxylic acid)-I-(Pen)+IPD-NH2 (peptide)
peptide: AICSRS[tBuAla]P[Pro(4-spirocPr)]I[Pen]IPD-NH2
modifications: disulfide 3-11; N-terminus assumed
SMILES: CC[C@H](C)[C@H](NC(=O)[C@H](C)N)C(=O)N[C@H]1CSSC(C)(C)[C@@H](C(=O)N[C@H](C(=O)N2CCC[C@H]2C(=O)N[C@@H](CC(=O)O)C(N)=O)[C@@H](C)CC)NC(=O)[C@H]([C@@H](C)CC)NC(=O)[C@@H]2CC3(CC3)CN2C(=O)[C@@H]2CCCN2C(=O)[C@H](CC(C)(C)C)NC(=O)[C@H](CO)NC(=O)[C@H](CCCNC(=N)N)NC(=O)[C@H](CO)NC1=O
B10: AIC+SRSLPP-((3-Chloro-Ph)G)-C+IPD-OH (peptide)
peptide: AICSRSLPP[(3-Chloro-Ph)G]CIPD-OH
modifications: disulfide 3-11; N-terminus assumed
SMILES: CC[C@H](C)[C@H](NC(=O)[C@H](C)N)C(=O)N[C@H]1CSSC[C@@H](C(=O)N[C@H](C(=O)N2CCC[C@H]2C(=O)N[C@@H](CC(=O)O)C(=O)O)[C@@H](C)CC)NC(=O)[C@H](c2cccc(Cl)c2)NC(=O)[C@@H]2CCCN2C(=O)[C@@H]2CCCN2C(=O)[C@H](CC(C)C)NC(=O)[C@H](CO)NC(=O)[C@H](CCCNC(=N)N)NC(=O)[C@H](CO)NC1=O

Key:
Experiment in all cases: cell-based or functional assay
[1] = molecular target: T1, Recombinant human MASP1 enzyme …
[2] = molecular target: Recombinant human MASP2 enzyme (fragment corresponding to amino acids 297-686, C-terminal His Tag) (human, UniProt O00187 297-686)
[3] = molecular target: recombinant human MASP2 active protease (amino acids 297-686, C-terminal His Tag) (human, UniProt O00187 297-686)
[4] = molecular target: T2, recombinant human MASP1 active protease …

Chain of Recombinant human MASP2 enzyme (fragment corresponding to amino acids 297-686, C-terminal His Tag) (O00187 other isoform, or with tags, fused parts or gaps limits assumed): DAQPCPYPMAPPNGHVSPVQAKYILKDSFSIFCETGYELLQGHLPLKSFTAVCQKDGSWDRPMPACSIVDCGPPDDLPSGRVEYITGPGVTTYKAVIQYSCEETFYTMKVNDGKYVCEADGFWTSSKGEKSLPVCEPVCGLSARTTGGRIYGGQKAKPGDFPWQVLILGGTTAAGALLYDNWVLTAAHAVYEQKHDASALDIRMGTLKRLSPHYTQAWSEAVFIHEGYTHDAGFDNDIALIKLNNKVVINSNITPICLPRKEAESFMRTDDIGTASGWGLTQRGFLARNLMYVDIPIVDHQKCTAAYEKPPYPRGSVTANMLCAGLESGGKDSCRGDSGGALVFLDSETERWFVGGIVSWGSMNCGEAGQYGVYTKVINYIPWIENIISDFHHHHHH
Chain of recombinant human MASP2 active protease (amino acids 297-686, C-terminal His Tag) (O00187 other isoform, or with tags, fused parts or gaps limits assumed): as above

Binder	human MASP1 IC50 [1] [nM]	human MASP2 IC50 [2] [nM]	human MASP2 IC50 [3] [nM]	human MASP1 IC50 [4] [nM]
B1	7.5	1000	–	–
[Sar]ICSRS[(2S)‑2‑Amino‑5‑methyl‑hexanoic acid]PPI[Pen]IPD-OH (disulfide 3-11) [((N-Me)G)-IC+SRS-((2S)-2-Amino-5-methyl-hexanoic acid)-PPI-(Pen)+IPD-OH]	65	70	–	–
[Sar]ICSRS[2‑Amino‑5,5,5‑trifluoro‑4‑methyl‑pentanoic acid]PPI[Pen]IPD-OH (disulfide 3-11) [((N-Me)G)-IC+SRS-(2-Amino-5,5,5-trifluoro-4-methyl-pentanoic acid)-PPI-(Pen)+IPD-OH]	14	330	–	–
[Sar]ICSRS[tBuAla]PPI[Pen]IP-{PEG9-NH2} (disulfide 3-11) [((N-Me)G)-IC+SRS-((tBu)A)-PPI-(Pen)+IP-(PEG9(31 atoms))-NH2]	–	–	73	1.8
B2	1000	1000	–	–
[NMeA]ICSRSLP[Oic]I[Pen]IP[(N-Benzyl)D]-NH2 (disulfide 3-11) [((N-Me)A)-IC+SRSLP-(Oic)-I-(Pen)+IP-((N-Benzyl)D)-NH2]	12	–	–	–
{(2S)‑2‑(morpholin-4-yl)propanoic acid}-ICSRSLP[Oic]I[Pen]IPD-OH (disulfide 2-10) [((2S)-2-(morpholin-4-yl)propanoic acid)-IC+SRSLP-(Oic)-I-(Pen)+IPD-OH]	70	170	–	–
B3	7	150	–	–
AICSRSL[(1S,2S,5R)‑3‑Azabicyclo(3.1.0)hexane‑2‑carboxylic acid]PI[Pen]IPD-OH (disulfide 3-11) [AIC+SRSL-((1S,2S,5R)-3-Azabicyclo[3.1.0]hexane-2-carboxylic acid)-PI-(Pen)+IPD-OH]	1.7	27	–	–
[dβPro]ICSRS[tBuAla]PPI[Pen]IPD-OH (disulfide 3-11) [(beta-p)-IC+SRS-((tBu)A)-PPI-(Pen)+IPD-OH]	2.5	–	–	–
B4	6.2	76	–	–
B5	3.1	–	–	–
B6	18	–	–	–
B7	5.3	46	–	–
B8	–	–	76	1.8
B9	–	–	24.5	1.83
B10	526	1000	–	–
